From patent US10323078B2, “Isolated peptides and fragments thereof from fibrinogen for use as drugs, particularly in skin inflammatory diseases” (Universite Paris Descartes, priority 2015, dated 2019)

Columns and labels:
P. acnes RON strain = test: Adhesion assay, biotinylated P. acnes binding to keratinocytes (NHDK); assay type: cell-based, Propionibacterium acnes; conditions: bacteria pretreated 0.87 to 7 μM, 1 h at 37° C.
Protocol: The bacterial suspension was adjusted at 600 nm to the desired concentration, pretreated with peptides Fg1 and Fg2 at the final concentration ranging from 0.87 to 7 μM for 1 h at 37° C. and deposited on the previously saturated cells with a solution of PBS SVF 2% for 2 h. After incubation for 1 h at 37° C., unbound bacteria are removed by 3 washes with PBS and fixed bacteria are detected by a streptavidin-peroxidase solution of 0.5 μg/ml for 30 min.
Whole P. acnes bacteria are labelled by biotinylation, pre-treated or not with the peptides and contacted with the various cell lines. After removal of the unfixed bacteria, the adhesion activity was measured spectrophotometrically by using the streptavidin-peroxidase conjugate and a chromogenic substrate.
The ability of P. acnes strains 6919, RON and PIE was tested at 3 concentrations to adhere to various cells lines. It has been shown that the strains of P. acnes tested bound to the three kind of cell lines tested (keratinocytes, monocytes and fibroblast) with a maximum adhesion strength found for keratinocytes (FIG. 11). Knowing that P. acnes is able to recognize fibrinogen, it was used human and bovine whole fibrinogen to compete the interaction between the bacteria and the target cell. […] Then, the ability Fg1 to inhibit the adhesion of bacteria and RON PIE was evaluated on the 3 main types cell. […]

NHDK cells = test: IL-8 production by keratinocytes stimulated by peptidoglycanne (PGN); assay type: cell-based, human; conditions: NHDK pre-treated 24 h with 1.75 to 7 μM, then PGN 10 μg/ml
Protocol: FIG. 19: Dose-dependent inhibition of IL-8 production by keratinocyte pre-treated by small Fg1-generated peptides and stimulated by peptidoglycanne (PGN). NHDK cell were incubated for 24 h with recombinant peptide Fg1 (light gray bar) and Fg2 (dark gray bar) at concentrations ranging from 1.75 to 7 μM. Measurement of IL-8 production was realized by ELISA as described in Materials and Methods. Controls experiments were done with unstimulated NHDK cell (white bar) and HDF stimulated with PGN at 10 μg/ml (black bar). Data are means±S.D. of three separate experiments. Statistical significance is indicated by * (P<0.05), ** (P<0.01), *** (P<0.001), and **** (P<0.0001), respectively. […]
Human IL-1ß, IL-8, IL-12, hBD-2, and TNF-α protein concentration was measured in the supernatants of stimulated cells using various ELISA Set kits (Ready-Set-Go kit from eBioscience for acne experiments, and for psoriasis experiments the Duo set IL-8 kit from R&D Systems and the BD-2 Human Development (hBD-2) from Peprotech) according to the manufacturer's instructions. […] The optical density was determined at 450 nm at a wavelength correction of 540 nm.
The production of IL-8 was also measured NHDK cells stimulated by LTA, LPS and PGN, in presence or not of Fg1 or Fg2. […]

B1: MKRMVSWSFHKLKTMKHLLLLLLCVFLVKSQGVNDNEEGFFSARGHRPLDKKREEAPSLRPAPPPISGGGYRARPAKAAATQKKVERKAPDAGGCLHADPDLGVLC (protein)
chain: MKRMVSWSFHKLKTMKHLLLLLLCVFLVKSQGVNDNEEGFFSARGHRPLDKKREEAPSLRPAPPPISGGGRARPAKAAATQKKVERKAPDAGGCLHADPDLGVLCMKRMVSWSFHKLKTMKHLLLLLLCVFLVKSQGVNDNEEGFFSARGHRPLDKKREEAPSLRPAPPPISGGGYRARPAKAAATQKKVERKAPDAGGCLHADPDLGVLC
modifications: GST fusion; fragment Fg1
notes: fragment of Bß chain of human fibrinogen having 106 amino acids; recombinant GST-fused peptide expressed in E. coli
Inhibition of adhesion of P. acnes RON strain (P. acnes RON strain): inhibits the adhesion of RON strain in a dose-dependent manner | Decrease of IL-8 production by PGN-stimulated cells (NHDK cells): significantly decreases production of IL-8
